Experimental data published in a protein production outcome set (Wang et al. 2014).

Assay: label from the status in PepcDB records

Sequence	protein production
MSDLAMANPAPERTVMQHVRPLPYEADFTGFLSNTVAPRWMEALRIQRMRTCFPHFDSGAPQHLCIITETTVRYRKPVRYSDAIVGKAWLQSARYSRWIIAFSFAFEFSGLPAFEGRQAGTFIDPQTHLPLPIPASLRLPADH	failed
MSDLSQLIVAPILLPLITAAIMLLLGEKHRHIKARLNLLSTFSGLAIAACLLLWVRTQGQAASIGVYLPGNWPAPFGIVLVVDHLSALLLTLTGVIGFSALLFARARWDGAGASFHALFQIQLMGLYGAFLTADLFNLFVFFEVLLAASYGLLLHGSGRARVRAGLHYIAINLFASSLFLIGAAMLYGVTGTLNMADLALKIPLVPEADRGLLHAGAAILAMAFLVKAGIWPLNFWLVPAYASASAPVAALFAIMTKVGLYAVLRLWTLLFSGQAGASAHFGGEWLVYGGLVTLAVAAVSILAAQRLERMAALSILVSAGTLLGAVGFAQAALTGAALFYLVNSTLALCALFLLAELVERSRSANEAPLDEEEDAMPPPLESLHPPKGINLDDEQQVVIGQIIPWTMAFLGLSFIACALLIIGMPPLSGFVGKLNLISALFNPLGLGVPAEQPLSAAGWGLVALLILSGLASLIAFGRVGIQRFWKPEERPSPVLRRYECLPIVILLGLCLILSFKAEPLLRYTQDTAASLQAPDAYIKAVMAAQPIPGPTSRDVQVQP	failed
MSDLTFNKIAGGVLLTGLVIFGLREASSIVFSKPEVEKAGYEIAVQEESAGGAAVVESLPDWNAVLTPANVAAGQAVAAKCAACHKFDASNANGTGPGLWDVVGRKPAAHADFNYSTGMKEFAAKTPVWDYDHLYEFLKAPGKYVSGTNMTFVGLKKQEDRIAMIAYMHSLGSKLPVPPPRPVAAPAPAEGAAPAAEGAAPAAEGAAPAAAGAAPAAPAAAAPAAPKA	failed
MSDLVKIRDVSLSTPYVSVIGKITGIHKKEYESDGTTKSVYQGYIEDDTARIRISSFGKQLQDSDVVRIDNARVAQFNGYLSLSVGDSSRIESVNVNIPLEHHHHHH	not failed
MSDLVSYHLDDGVATLTLNNGKVNAISPDVIIAFNAALDQAEKDRAIVIVTGQPGILSGGYDLKVMTSSAEAAINLVAQGSTLARRMLSHPFPIIVACPGHAVAKGAFLLLSADYRIGVAGPFSIGLNEVQIGMTMHHAGIELARDRLRKSAFNRSVINAEMFDPEGAMAAGFLDKVVSVEELQGAALAVAAQLKKINMNAHKKTKLKVRKGLLDTLDAAIEQDRQHML	not failed
MSDNKPFGGSFGSNGGQYATTVQYGGTAAAPAKVSLGDTPAAAPAGDVIKDTTTAAFAADVIQESRRQPVLVDFWAPWCGPCKQLTPQLEKAVRAAGGKVKLVKMNIDDHPSIAGQLGIQSIPAVIAFKDGQPVDGFMGAIPESQIAEFITKVGGKGNGAPAVAEALAAATEAREAGDMQTAADIFDAILAQAPETIEAIAGLGELLFEAGDTEGAEALLATAPEAKKDAPVLAALRAKMALAAQAAELGNPAEFERRLAENPKDHQARFDLAMIQNARGERTAAADNLLAIIKADRGWNEDGARTQLLQFFEAWGMTDEATLAARRKLSALLFS	failed
MSDPLTAQEQHKRRQAVRELMPRTPFIGGLGIVFERYEPDDVVIRLPFRTDLTNDGTYFHGGVIASVMDTAGAAAAWSNHDFDRGTRAATVAMSIQYTGAAKRCDLLCHARTARRRKELTFTEITATDPDGNIVAHAVQTYRIVLEHHHHHH	failed
MSDPSPIPARGRIASGGLVFLTVTTVAWGLSWPVTKYLISQWPPLPLRGLTGIAGSLALFGYAALRGDSLAVPRDQRLRLVISAFFNVTLWMAVMGLALLWLPAGETAVIAYTMPVWTALLAWPLLGERLTLRRVAALALAFGGIAALMGAAGFAASMTKLPGILLALTGALGFALGTIFLKRFPIALPGATSAAWQIGLGCIPVAVIGLAFEIPHVSVLTPLGWAGLVYLVVIQFCIAYVCWFAALQRLPASVAAIGTMATPVIGVVASAVALHEPLGVGQIAALVMTLTGVALATRS	failed
MSDSTLTGNAPVRRNITRKNVIIGLLLLLFVLIALWCHGRPGSELGLLEFTPLVALAILSLIGVDIVLAVISSIIIAMIMTSTGLPEMGTMLAKSTGSFIATVGLIIMLGAGVGEVATRTGAAVELVKFVVHRIGLSSQTRVKFGIVASSILICGSLGTMAGGNAIIVAVIIPVAAAVRLTPPTVAALMMTAGSVGLFTGPFTPSTVTILSLGGLSYPDYLLYVGLPMSAVTLLAGWVMAGRIQKMTEGKLRYDVDLAEKPQEDLSAAQQRRRKLSALAFAATIIVMAIVGVVIKAGFSFAIIVMLLVALMTGLVGGLRPTQILQALYHGCGRLVWMFILYWLYNPILELMDGLHAYQGLLEYTQPLLEGISPAWLCFSIFAFNIIGHVPGAAVAQMTFTHKIFGPMLMAAGVPPQGTTAVLLASSQVDWFGPFPSSDMFGQMGLAQSTHLKYMLYNGWAIVVANIILFALLFQILV	failed
MSDTLYIKMDQAVEITKKQVTVGDVAKLQCKNKNITNRLKSMKLLEDTTKGKKRYIVSIMKIIEMADQTFQNVDIQNIGETECVVEFKTPKKDDGPM	not failed
MSDVYNNEAFFKQYMKRRYRENSPNELIEKPAFFQLIGDVKGKKILDLGCGDAIFGKELLEKDCHSYTGIEGSELMYEKAKKQLENKNGIVHFLNLKDYTYPPATFDLVTSRLALHYIEHLPIIFQNVYETLKTNGTFTFSVQHPVITSSFESLQTSGKRTSWLVDDYFKTGKRVEPWIDQKVIKYHRTTEEYFTLLQQAGFTITNLKEATPNQTYFQSAEEYERRLRIPLFLLFSCRKLEHHHHHH	failed
MSDWNIDQAEELYGVNRWGAGYFSIGENGNIQIRPNHRLPDVTIDMKEVVDEIISEGIQFPAVIRFHDILRSQVEIINETFGKQIEEANYQGQYCGVFPIKVNQMREVVEEIMDAGEPYNYGLEAGSKPELMAVMAYNDNPEALTILNGYKDKDYLTLALLGRQLKRKMIIVIEKFSELEMLIPLAKQMGVKPMIGLRSKMMVKSSGKWAGSSGDRAKFGLSIAEILNVIERLREEDMLHCAKLLHFHIGSQLSDIRKIKEAVNEGARLYAKLVLEGMPLEYLDIGGGLGIDYDGTSTTNDSSRNYSTEEYVADVVWGVKQICDLEKVPHPNLVSESGRAMTAHHSCVVTNIVGEMKPAGTQYDISASSDEHILVKNMRELHSSGDQFHPQERYNDAAGYKQNAYEAFKLGILSLNEMAKLDTMYWQILADIHHSLDKDTYVMQELEELEDMLASQYLCNFSVFQSAADTWAIGQVLPVVPISRLNEQPEVRCSIVDITCDSDGKLSKYIEGTDISDHIPMHNLRKGEDYHVGLFLTGAYQDVMGDMHNLFGRLTEVHVYCHDDEPGDFYIEEVVPGTSAEKVLQTMQYNTEYMAKTVKKQIDRQVRKGSLAPREGVRWTNFYEHCLAGSTYLRVE	failed
MSEANSGPGRVTREQRGHLFLIGLDRAGKRNAFDSAMLADLALAMGEYERSEESRCAVLFAHGEHFTAGLDLMELAPKLAASGFRYPDGGVDPWGVVQPRRSKPLVVAVQGTCWTAGIELMLNADIAVAARGTRFAHLEVLRGIPPLGGSTVRFPRAAGWTDAMRYILTGDEFDADEALRMRLLTEVVEPGEELARALEYAERIARAAPLAVRAALQSAFQGRDEGDDAALSRVNESLAALIGSEDVREGVLAMV	not failed
MSEDAWKVNLIGNDEVHDLYTIVGNAAKQSMARDTDPMVSTILAYEGDWRKVFKRNTMTTFYGSKGFGMAQQHMDDLMEPLSREVMQKKRAKHPFGQTRKEHHAASRLLAAHAAAAIKGEIPLAIKAMEFIQKLSAMMAHEGKPLEWTTPIGLPWSNRYHDPVTERVNLWMHDHGVRRPFRPVVADGYKKTINKNHSVNGSAPNFVHALEHHHHHH	failed
MSEDSELIEQVIEQPDSLIISPPSDSSSSSYNHIQPFVYLESTATTQTNHNVLLILNQKITIDLISLWKKCEIIVCADGGANSLYEYFNDNNHHHHHENLQRSDYIPDYIVGDFDSISPDVKTYYESHGSKIIRQSSQYYNDFTKSIHCIQLHYQLNHTKENWFESIDEVDGLAKLWNGLNNSSDVVVDIDITIYVLNAIGGRFDQTVQSINQLYIMNEDYPKVTVFFITTNDIIFLLKKGVNYISYKNRLMFHKDNGSSPTPTCGLLPLSNKTPIILNSYGLKYDMRNWKTEMLGQVSSSNRISGETGFIVECSDDIVMNIEIDV	not failed
MSEEFDESEIIFSDNYFPIRRREDGNEKENNRPVDFRENSERVWNKSSRRSKTTPLPSAVTAFSSSLPVNIPMRRYSTEEEYSDDDGGRKMIPPHLIVGRRMEGGQMAFSVCTGNGRTLKGRDLSRVRNSVLKLTGFLEA	failed
MSEEIREVKVLEKPWVEKYRPQRLDDIVGQEHIVKRLKHYVKTGSMPHLLFAGPPGVGKCLTGDTKVIANGQLFELGELVEKLSGGRFGPTPVKGLKVLGIDEDGKLREFEVQYVYKDRTDRLIKIKTQLGRELKVTPYHPLLVNRENGEIKWIKAEELKPGDKLAIPSFLPLITGENPLAEWLGYFMGSGYAYPSNSVITFTNEDPLIRQRFMELTEKLFPDAKIRERIHADGTPEVYVVSRKAWSLVNSISLTLIPREGWKGIRSFLRAYSDCNGRIESDAIVLSTDNNDMAQQIAYALASFGIIAKMDGEDVIISGSDNIERFLNEIGFSTQSKLKEAQKLIRKTNVRSDGLKINYELISYVKDRLRLNVNDKRNLSYRNAKELSWELMKEIYYRLEELERLKKVLSEPILIDWNEVAKKSDEVIEKAKIRAEKLLEYIKGERKPSFKEYIEIAKVLGINVERTIEAMKIFAKRYSSYAEIGRKLGTWNFNVKTILESDTVDNVEILEKIRKIELELIEEILSDGKLKEGIAYLIFLFQNELYWDEITEVKELRGDFIIYDLHVPGYHNFIAGNMPTVVHNTTAALALARELFGENWRHNFLELNASDERGINVIREKVKEFARTKPIGGASFKIIFLDEADALTQDAQQALRRTMEMFSSNVRFILSCNYSSKIIEPIQSRCAIFRFRPLRDEDIAKRLRYIAENEGLELTEEGLQAILYIAEGDMRRAINILQAAAALDKKITDENVFMVASRARPEDIREMMLLALKGNFLKAREKLREILLKQGLSGEDVLVQMHKEVFNLPIEEPKKVLLADKIGEYNFRLVEGANEIIQLEALLAQFTLIGKK	failed
MSEEKNLVINANDSLGEIVIAPEVIEVIIGIAASKVEGVYGMRGTFANNVNELLGRAAHGKGVYLRTEEEGLKVDIYCYLNYGVSVPKVALEMQDRVKQQVLFMTDIDLVEVNIHVVAVVPEKIPQPDLNELFPEDEDGEENELEHHHHHH	not failed
MSEHHHDHSHDHGHAGHQYHAVGSIQIAFFMNFGFTILEAIGGVMTNSTAILANAVHDFGDSIAVGQAWYFEKLSGRTGDKRYSYGYQRFSIFGALVSALMMLASSFLVLVEAVPRLLHPEHPNAKGMVAFALVGVAVNALAMLRLKGQAGMNARVIALHLLEDVLGWLSVLLVSVVLLFTSLPILDPLLAIVITLYILTGVVKNLRAMVPVFLQAVPSELSLDKVVADIQQTEHVTGVHHAHLWSLDGQRTVFTAHLEIGCDVNPAEYASIKEEIRKLVARHGIYHSTVELEYPGEVCRNESHKDG	failed
MSEHPKKVVLLDLDGTLTKSDPGIIGCVVKAFEEMGYPVPDDAELHRFIGPAISESMQRNGIPDDKLDEGVRIYRKYYADEAVFDDPNNPGQKVPGRLNNTIYQGIPEQLAKLRADGYYLAIASCKPQYQCIPICEHFHLDTMVDGIYGASEDNSRLDKDQVIRWAFQHIDFDENAGDKALMVGDRWTDADGAKACGLDCLGCGWGYAEPGELKAHGAYRILDSVDELAQAVEEYFA	not failed
MSEILVLNCGSSSVKFALINPHTSQSLVTGLAENIATKNCKVVFKAEHKIVKYLENGSYKDVFEMLKDFLVENKHLEKIVAIGHRVVHGGQYFSKSVLINADSLEKIKACIALAPLHNPAHIEGIRFCQQIFPELPQVAVFDTAFHQTMPSYIAEYAIPYELTHKHNIRKYGAHGTSHKYVSEQAAKILTQQKANVIVAHLGNGCSITAVVDGKSIDTSMGLTPLDGLVMGTRSGCIDPSIFAYISDNLGWSVTEITNMLNKQSGLLGICGHNDMREVSQLAAKGDSLAKLAIEIFSHRVAKFVASYMIYFNKLDALVFTGGIGENAANIRKNIISKLANLGFMIDHQKNSNSETFINSKNSHNIMVIATNEELMIAQETQNLI	not failed
